B1: GpH7-A5/GpH7-B3 variant P331_19Q/GpL16-k0 (antibody, human IgG1, kappa)
heavy 1: not shown
heavy 2: not shown
light: DIVMTQSPLSLPVTPGEPASISCQASESLVHSNRNTYLHWYLQKPGQSPQLLIYKVSNRFSGVPDRFSGSGSGTDFTLKISRVEAEDVGVYYCSQNTHVPPTFGQGTKVEIERTVAAPSVFIFPPSDEQLKSGTASVVCLLNNFYPREAKVQWKVDNALQSGNSQESVTEQDSKDSTYSLSSTLTLSKADYEKHKVYACEVTHQGLSSPVTKSFNRGEC
notes: He Ab; copies: 1 + 1 + 2
B2: GpH7-A5/GpH7-B3 variant P331_20W/GpL16-k0 (antibody, human IgG1, kappa)
heavy 1: not shown
heavy 2: not shown
light: DIVMTQSPLSLPVTPGEPASISCQASESLVHSNRNTYLHWYLQKPGQSPQLLIYKVSNRFSGVPDRFSGSGSGTDFTLKISRVEAEDVGVYYCSQNTHVPPTFGQGTKVEIERTVAAPSVFIFPPSDEQLKSGTASVVCLLNNFYPREAKVQWKVDNALQSGNSQESVTEQDSKDSTYSLSSTLTLSKADYEKHKVYACEVTHQGLSSPVTKSFNRGEC
notes: He Ab; copies: 1 + 1 + 2
B3: GpH7-A5/GpH7-B3 variant S239_03V/GpL16-k0 (antibody, human IgG1, kappa)
heavy 1: not shown
heavy 2: not shown
light: DIVMTQSPLSLPVTPGEPASISCQASESLVHSNRNTYLHWYLQKPGQSPQLLIYKVSNRFSGVPDRFSGSGSGTDFTLKISRVEAEDVGVYYCSQNTHVPPTFGQGTKVEIERTVAAPSVFIFPPSDEQLKSGTASVVCLLNNFYPREAKVQWKVDNALQSGNSQESVTEQDSKDSTYSLSSTLTLSKADYEKHKVYACEVTHQGLSSPVTKSFNRGEC
notes: He Ab; copies: 1 + 1 + 2
B4: GpH7-A5/GpH7-B3 variant S239_02A/GpL16-k0 (antibody, human IgG1, kappa)
heavy 1: not shown
heavy 2: not shown
light: DIVMTQSPLSLPVTPGEPASISCQASESLVHSNRNTYLHWYLQKPGQSPQLLIYKVSNRFSGVPDRFSGSGSGTDFTLKISRVEAEDVGVYYCSQNTHVPPTFGQGTKVEIERTVAAPSVFIFPPSDEQLKSGTASVVCLLNNFYPREAKVQWKVDNALQSGNSQESVTEQDSKDSTYSLSSTLTLSKADYEKHKVYACEVTHQGLSSPVTKSFNRGEC
notes: He Ab; copies: 1 + 1 + 2
B5: GpH7-A5/GpH7-B3 variant Q295_12R/GpL16-k0 (antibody, human IgG1, kappa)
heavy 1: not shown
heavy 2: not shown
light: DIVMTQSPLSLPVTPGEPASISCQASESLVHSNRNTYLHWYLQKPGQSPQLLIYKVSNRFSGVPDRFSGSGSGTDFTLKISRVEAEDVGVYYCSQNTHVPPTFGQGTKVEIERTVAAPSVFIFPPSDEQLKSGTASVVCLLNNFYPREAKVQWKVDNALQSGNSQESVTEQDSKDSTYSLSSTLTLSKADYEKHKVYACEVTHQGLSSPVTKSFNRGEC
notes: He Ab; copies: 1 + 1 + 2
B6: GpH7-A5/GpH7-B3 variant Q295_03V/GpL16-k0 (antibody, human IgG1, kappa)
heavy 1: not shown
heavy 2: not shown
light: DIVMTQSPLSLPVTPGEPASISCQASESLVHSNRNTYLHWYLQKPGQSPQLLIYKVSNRFSGVPDRFSGSGSGTDFTLKISRVEAEDVGVYYCSQNTHVPPTFGQGTKVEIERTVAAPSVFIFPPSDEQLKSGTASVVCLLNNFYPREAKVQWKVDNALQSGNSQESVTEQDSKDSTYSLSSTLTLSKADYEKHKVYACEVTHQGLSSPVTKSFNRGEC
notes: He Ab; copies: 1 + 1 + 2
B7: GpH7-A5/GpH7-B3 variant Q295_18N/GpL16-k0 (antibody, human IgG1, kappa)
heavy 1: not shown
heavy 2: not shown
light: DIVMTQSPLSLPVTPGEPASISCQASESLVHSNRNTYLHWYLQKPGQSPQLLIYKVSNRFSGVPDRFSGSGSGTDFTLKISRVEAEDVGVYYCSQNTHVPPTFGQGTKVEIERTVAAPSVFIFPPSDEQLKSGTASVVCLLNNFYPREAKVQWKVDNALQSGNSQESVTEQDSKDSTYSLSSTLTLSKADYEKHKVYACEVTHQGLSSPVTKSFNRGEC
notes: He Ab; copies: 1 + 1 + 2
B8: GpH7-A5/GpH7-B3 variant Q295_05P/GpL16-k0 (antibody, human IgG1, kappa)
heavy 1: not shown
heavy 2: not shown
light: DIVMTQSPLSLPVTPGEPASISCQASESLVHSNRNTYLHWYLQKPGQSPQLLIYKVSNRFSGVPDRFSGSGSGTDFTLKISRVEAEDVGVYYCSQNTHVPPTFGQGTKVEIERTVAAPSVFIFPPSDEQLKSGTASVVCLLNNFYPREAKVQWKVDNALQSGNSQESVTEQDSKDSTYSLSSTLTLSKADYEKHKVYACEVTHQGLSSPVTKSFNRGEC
notes: He Ab; copies: 1 + 1 + 2
B9: GpH7-A5/GpH7-B3 variant Q295_11K/GpL16-k0 (antibody, human IgG1, kappa)
heavy 1: not shown
heavy 2: not shown
light: DIVMTQSPLSLPVTPGEPASISCQASESLVHSNRNTYLHWYLQKPGQSPQLLIYKVSNRFSGVPDRFSGSGSGTDFTLKISRVEAEDVGVYYCSQNTHVPPTFGQGTKVEIERTVAAPSVFIFPPSDEQLKSGTASVVCLLNNFYPREAKVQWKVDNALQSGNSQESVTEQDSKDSTYSLSSTLTLSKADYEKHKVYACEVTHQGLSSPVTKSFNRGEC
notes: He Ab; copies: 1 + 1 + 2
B10: GpH7-A5/GpH7-B3 variant Q295_09D/GpL16-k0 (antibody, human IgG1, kappa)
heavy 1: not shown
heavy 2: not shown
light: DIVMTQSPLSLPVTPGEPASISCQASESLVHSNRNTYLHWYLQKPGQSPQLLIYKVSNRFSGVPDRFSGSGSGTDFTLKISRVEAEDVGVYYCSQNTHVPPTFGQGTKVEIERTVAAPSVFIFPPSDEQLKSGTASVVCLLNNFYPREAKVQWKVDNALQSGNSQESVTEQDSKDSTYSLSSTLTLSKADYEKHKVYACEVTHQGLSSPVTKSFNRGEC
notes: He Ab; copies: 1 + 1 + 2
B11: GpH7-A5/GpH7-B3 variant Q295_06M/GpL16-k0 (antibody, human IgG1, kappa)
heavy 1: not shown
heavy 2: not shown
light: DIVMTQSPLSLPVTPGEPASISCQASESLVHSNRNTYLHWYLQKPGQSPQLLIYKVSNRFSGVPDRFSGSGSGTDFTLKISRVEAEDVGVYYCSQNTHVPPTFGQGTKVEIERTVAAPSVFIFPPSDEQLKSGTASVVCLLNNFYPREAKVQWKVDNALQSGNSQESVTEQDSKDSTYSLSSTLTLSKADYEKHKVYACEVTHQGLSSPVTKSFNRGEC
notes: He Ab; copies: 1 + 1 + 2
B12: GpH7-A5/GpH7-B3 variant Q295_10E/GpL16-k0 (antibody, human IgG1, kappa)
heavy 1: not shown
heavy 2: not shown
light: DIVMTQSPLSLPVTPGEPASISCQASESLVHSNRNTYLHWYLQKPGQSPQLLIYKVSNRFSGVPDRFSGSGSGTDFTLKISRVEAEDVGVYYCSQNTHVPPTFGQGTKVEIERTVAAPSVFIFPPSDEQLKSGTASVVCLLNNFYPREAKVQWKVDNALQSGNSQESVTEQDSKDSTYSLSSTLTLSKADYEKHKVYACEVTHQGLSSPVTKSFNRGEC
notes: He Ab; copies: 1 + 1 + 2
B13: GpH7-A5/GpH7-B3 variant Q295_08L/GpL16-k0 (antibody, human IgG1, kappa)
heavy 1: not shown
heavy 2: not shown
light: DIVMTQSPLSLPVTPGEPASISCQASESLVHSNRNTYLHWYLQKPGQSPQLLIYKVSNRFSGVPDRFSGSGSGTDFTLKISRVEAEDVGVYYCSQNTHVPPTFGQGTKVEIERTVAAPSVFIFPPSDEQLKSGTASVVCLLNNFYPREAKVQWKVDNALQSGNSQESVTEQDSKDSTYSLSSTLTLSKADYEKHKVYACEVTHQGLSSPVTKSFNRGEC
notes: He Ab; copies: 1 + 1 + 2
B14: GpH7-A5/GpH7-B3 variant Q295_04F/GpL16-k0 (antibody, human IgG1, kappa)
heavy 1: not shown
heavy 2: not shown
light: DIVMTQSPLSLPVTPGEPASISCQASESLVHSNRNTYLHWYLQKPGQSPQLLIYKVSNRFSGVPDRFSGSGSGTDFTLKISRVEAEDVGVYYCSQNTHVPPTFGQGTKVEIERTVAAPSVFIFPPSDEQLKSGTASVVCLLNNFYPREAKVQWKVDNALQSGNSQESVTEQDSKDSTYSLSSTLTLSKADYEKHKVYACEVTHQGLSSPVTKSFNRGEC
notes: He Ab; copies: 1 + 1 + 2
B15: GpH7-A5/GpH7-B3 variant Q295_15Y/GpL16-k0 (antibody, human IgG1, kappa)
heavy 1: not shown
heavy 2: not shown
light: DIVMTQSPLSLPVTPGEPASISCQASESLVHSNRNTYLHWYLQKPGQSPQLLIYKVSNRFSGVPDRFSGSGSGTDFTLKISRVEAEDVGVYYCSQNTHVPPTFGQGTKVEIERTVAAPSVFIFPPSDEQLKSGTASVVCLLNNFYPREAKVQWKVDNALQSGNSQESVTEQDSKDSTYSLSSTLTLSKADYEKHKVYACEVTHQGLSSPVTKSFNRGEC
notes: He Ab; copies: 1 + 1 + 2
B16: GpH7-A5/GpH7-B3 variant Q295_14T/GpL16-k0 (antibody, human IgG1, kappa)
heavy 1: not shown
heavy 2: not shown
light: DIVMTQSPLSLPVTPGEPASISCQASESLVHSNRNTYLHWYLQKPGQSPQLLIYKVSNRFSGVPDRFSGSGSGTDFTLKISRVEAEDVGVYYCSQNTHVPPTFGQGTKVEIERTVAAPSVFIFPPSDEQLKSGTASVVCLLNNFYPREAKVQWKVDNALQSGNSQESVTEQDSKDSTYSLSSTLTLSKADYEKHKVYACEVTHQGLSSPVTKSFNRGEC
notes: He Ab; copies: 1 + 1 + 2
B17: GpH7-A5/GpH7-B3 variant S239_01G/GpL16-k0 (antibody, human IgG1, kappa)
heavy 1: not shown
heavy 2: not shown
light: DIVMTQSPLSLPVTPGEPASISCQASESLVHSNRNTYLHWYLQKPGQSPQLLIYKVSNRFSGVPDRFSGSGSGTDFTLKISRVEAEDVGVYYCSQNTHVPPTFGQGTKVEIERTVAAPSVFIFPPSDEQLKSGTASVVCLLNNFYPREAKVQWKVDNALQSGNSQESVTEQDSKDSTYSLSSTLTLSKADYEKHKVYACEVTHQGLSSPVTKSFNRGEC
notes: He Ab; also called 3239_01G; copies: 1 + 1 + 2
B18: GpH7-A5/GpH7-B3 variant Q295_02A/GpL16-k0 (antibody, human IgG1, kappa)
heavy 1: not shown
heavy 2: not shown
light: DIVMTQSPLSLPVTPGEPASISCQASESLVHSNRNTYLHWYLQKPGQSPQLLIYKVSNRFSGVPDRFSGSGSGTDFTLKISRVEAEDVGVYYCSQNTHVPPTFGQGTKVEIERTVAAPSVFIFPPSDEQLKSGTASVVCLLNNFYPREAKVQWKVDNALQSGNSQESVTEQDSKDSTYSLSSTLTLSKADYEKHKVYACEVTHQGLSSPVTKSFNRGEC
notes: He Ab; copies: 1 + 1 + 2
B19: GpH7-A5/GpH7-B3 variant Q295_07I/GpL16-k0 (antibody, human IgG1, kappa)
heavy 1: not shown
heavy 2: not shown
light: DIVMTQSPLSLPVTPGEPASISCQASESLVHSNRNTYLHWYLQKPGQSPQLLIYKVSNRFSGVPDRFSGSGSGTDFTLKISRVEAEDVGVYYCSQNTHVPPTFGQGTKVEIERTVAAPSVFIFPPSDEQLKSGTASVVCLLNNFYPREAKVQWKVDNALQSGNSQESVTEQDSKDSTYSLSSTLTLSKADYEKHKVYACEVTHQGLSSPVTKSFNRGEC
notes: He Ab; copies: 1 + 1 + 2
B20: GpH7-A5/GpH7-B3 variant Q295_16H/GpL16-k0 (antibody, human IgG1, kappa)
heavy 1: not shown
heavy 2: not shown
light: DIVMTQSPLSLPVTPGEPASISCQASESLVHSNRNTYLHWYLQKPGQSPQLLIYKVSNRFSGVPDRFSGSGSGTDFTLKISRVEAEDVGVYYCSQNTHVPPTFGQGTKVEIERTVAAPSVFIFPPSDEQLKSGTASVVCLLNNFYPREAKVQWKVDNALQSGNSQESVTEQDSKDSTYSLSSTLTLSKADYEKHKVYACEVTHQGLSSPVTKSFNRGEC
notes: He Ab; copies: 1 + 1 + 2
B21: GpH7-A5/GpH7-B3 variant Q295_13S/GpL16-k0 (antibody, human IgG1, kappa)
heavy 1: not shown
heavy 2: not shown
light: DIVMTQSPLSLPVTPGEPASISCQASESLVHSNRNTYLHWYLQKPGQSPQLLIYKVSNRFSGVPDRFSGSGSGTDFTLKISRVEAEDVGVYYCSQNTHVPPTFGQGTKVEIERTVAAPSVFIFPPSDEQLKSGTASVVCLLNNFYPREAKVQWKVDNALQSGNSQESVTEQDSKDSTYSLSSTLTLSKADYEKHKVYACEVTHQGLSSPVTKSFNRGEC
notes: He Ab; copies: 1 + 1 + 2
B22: GpH7-A5/GpH7-B3 variant Q295_01G/GpL16-k0 (antibody, human IgG1, kappa)
heavy 1: not shown
heavy 2: not shown
light: DIVMTQSPLSLPVTPGEPASISCQASESLVHSNRNTYLHWYLQKPGQSPQLLIYKVSNRFSGVPDRFSGSGSGTDFTLKISRVEAEDVGVYYCSQNTHVPPTFGQGTKVEIERTVAAPSVFIFPPSDEQLKSGTASVVCLLNNFYPREAKVQWKVDNALQSGNSQESVTEQDSKDSTYSLSSTLTLSKADYEKHKVYACEVTHQGLSSPVTKSFNRGEC
notes: He Ab; copies: 1 + 1 + 2

molecular target: T1, FcγRIIIa extracellular domain, C-terminal His tag (human, UniProt P08637 17-208); experiment: SPR, binding activity relative to GpH7-A5/GpH7-B3/GpL16-k0 (=100)
T1 construct: extracellular domain; also called 3a
T1 sequence (P08637 other isoform, or with tags, fused parts or gaps): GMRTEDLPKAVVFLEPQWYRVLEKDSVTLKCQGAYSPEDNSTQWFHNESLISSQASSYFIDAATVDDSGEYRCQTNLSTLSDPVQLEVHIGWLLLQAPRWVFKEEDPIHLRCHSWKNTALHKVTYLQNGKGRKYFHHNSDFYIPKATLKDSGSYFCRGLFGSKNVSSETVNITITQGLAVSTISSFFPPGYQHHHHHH

| Binder | He/Con 3a [%] |
| --- | --- |
| B1 | 73.9 |
| B2 | 71.9 |
| B3 | 72.4 |
| B4 | 70.9 |
| B5 | 73.2 |
| B6 | 86.2 |
| B7 | 85.7 |
| B8 | 74.4 |
| B9 | 81.8 |
| B10 | 85.6 |
| B11 | 100 |
| B12 | 105 |
| B13 | 120 |
| B14 | 75.1 |
| B15 | 81.5 |
| B16 | 120 |
| B17 | 72 |
| B18 | 111 |
| B19 | 101 |
| B20 | 80.2 |
| B21 | 90.4 |
| B22 | 76.6 |

Source: patent US20260167699A1 (Chugai, published 2026)
